Laboratory results published in US20020192780.

What was measured:
SEQ ID NO:2 (KVLDGQDP) = biological target: T1, SEQ ID NO:2 (KVLDGQDP)
T1 chain: KVLDGQDP

SEQ ID NO:1 (KVLDPVKG) = biological target: T2, SEQ ID NO:1 (KVLDPVKG)
T2 chain: KVLDPVKG

[1] = biological target: PLA2 (Bovine pancreas, EC 3.1.1.4, Sigma), P00593
Chain of PLA2 (Bovine pancreas, EC 3.1.1.4, Sigma), P00593 (P00593 23-145): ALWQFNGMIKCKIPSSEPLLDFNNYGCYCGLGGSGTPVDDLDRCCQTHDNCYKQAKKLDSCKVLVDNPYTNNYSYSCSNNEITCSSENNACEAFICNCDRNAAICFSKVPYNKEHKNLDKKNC

B1: TGase (Guinea pig liver, EC 2.3.2.13, Sigma) (protein)
chain: AEDLILERCDLQLEVNGRDHRTADLCRERLVLRRGQPFWLTLHFEGRGYEAGVDTLTFNAVTGPDPSEEAGTMARFSLSSAVEGGTWSASAVDQQDSTVSLLLSTPADAPIGLYRLSLEASTGYQGSSFVLGHFILLYNPRCPADAVYMDSDQERQEYVLTQQGFIYQGSAKFINGIPWNFGQFEDGILDICLMLLDTNPKFLKNAGQDCSRRSRPVYVGRVVSAMVNCNDDQGVLQGRWDNNYSDGVSPMSWIGSVDILRRWKDYGCQRVKYGQCWVFAAVACTVLRCLGIPTRVVTNFNSAHDQNSNLLIEYFRNESGEIEGNKSEMIWNFHCWVESWMTRPDLEPGYEGWQALDPTPQEKSEGTYCCGPVPVRAIKEGHLNVKYDAPFVFAEVNADVVNWIRQKDGSLRKSINHLVVGLKISTKSVGRDEREDITHTYKYPEGSEEEREAFVRANHLNKLATKEEAQEETGVAMRIRVGQNMTMGSDFDIFAYITNGTAESHECQLLLCARIVSYNGVLGPVCSTNDLLNLTLDPFSENSIPLHILYEKYGDYLTESNLIKVRGLLIEPAANSYVLAERDIYLENPEIKIRVLGEPKQNRKLIAEVSLKNPLPVPLLGCIFTVEGAGLTKDQKSVEVPDPVEAGEQAKVRVDLLPTEVGLHKLVVNFECDKLKAVKGYRNVIIGPA
For B1, the “TGase activity (incorporation of 14C-putrescine into succinylated casein), peptide 1x10^-8 M preincubated with the enzyme” value (SEQ ID NO:2 (KVLDGQDP)) was “significantly reduced the PLA2 and TGase activities”, the “TGase activity (incorporation of 14C-putrescine into succinylated casein), peptide 1x10^-8 M preincubated with the enzyme” value (SEQ ID NO:1 (KVLDPVKG)) was “significantly reduced the PLA2 and TGase activities” and the PLA2 activity [1] was “PLA2 activity was increased about 2-fold after TGase 2 treatment”.
